In the supplement of paper PMC10567573:
± gives the standard deviation.

Experiment: protein stability index of a GFP-peptide fusion (GPS, HEK-293T) (PSI 1-6); higher = more stable
Details: c terminus: a fixed tail appended
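Also: 24-mer peptide tiles fused after GFP, lentivirally expressed, FACS-sorted into six equal bins by GFP/DsRed ratio, decoded by Illumina sequencing, PSI is the read-weighted mean bin number.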

| Sequence | protein stability index (treatment: DMSO) | protein stability index (treatment: MLN4924 1 uM, 8 h) |
| --- | --- | --- |
| GTTLRGRSDADLVVFLSPLTTFQD [OAS1] | 2.18 ± 0.4 | 2.28 ± 0.31 |
| GHGIVGTIVKARDKLYHPECFMCS [PDLIM4] | 2.45 ± 0.069 | 2.67 ± 0.21 |
| LKLLNVLEEYITDEQKEEEEEEGE [FAM9B] | 4.94 ± 0.18 | 4.93 ± 0.29 |
| FALGLGFGGVIAFSSYNKQDNNCH [SLC6A17] | 2.01 ± 0.4 | 2.44 ± 0.52 |
| VWMDDFKSHVYMAWNIPMSNPGVD [GALNT9] | 2.21 ± 0.3 | 2 ± 0.2 |
| ATIHGAIRLVCSRGNRLKTTSWGL [SCNN1D] | 2.46 ± 0.7 | 2.18 ± 0.24 |
| TQHLPRECLPENLGGYVKIDLATW [PTPN9] | 2.34 ± 0.4 | 2.31 ± 0.41 |
| DDEQYAWESSAGGSFTVRADHGEP [HSP90AB1] | 5.14 ± 0.29 | 5.07 ± 0.12 |
| NSSQSSSDGSCKTAGEMVFVYENA [BTBD10] | 4.22 ± 0.3 | 4.15 ± 0.22 |
| KEVFASRISNPSDDNSCEDLEEER [PCMTD2] | 5.55 ± 0.33 | 5.41 ± 0.31 |
| CDWLRATGFPQYAQLYEDFLFPID [DLC1] | 2.31 ± 0.45 | 2.26 ± 0.24 |
| CLRCWDQRTIMKPLEYQFKSQIMS [TLE6] | 2.14 ± 0.27 | 2.47 ± 0.48 |
| ITHSTVGSKGEKDLGASSLHVNGE [EHMT1] | 4.9 ± 0.2 | 5.03 ± 0.24 |
| TLPAGADFLMCYSVAEGYYSHRET [CASP6] | 2.5 ± 0.15 | 2.51 ± 0.4 |
| SVAPMNVRRGLAGATTLGDMIYVS [KLHL12] | 2.78 ± 0.53 | 2.96 ± 0.5 |
| YLFWEFATDNYDIGFGVYFEWTDS [ACBD3] | 3.14 ± 0.85 | 1.93 ± 0.72 |
| GCNSVLIQFATPNDFCSFYNILKT [CARM1] | 3.23 ± 0.62 | 2.84 ± 0.61 |
| QPSKSHKKVLKKMLKFLAKGEVPK [ATE1] | 2.13 ± 0.36 | 2.26 ± 0.58 |
| RAYLFNSVVNVGCGPAEERVLLTG [YPEL3] | 2.72 ± 0.56 | 2.87 ± 0.71 |
| RITGLSPGRSALIVAVLCYINLLN [SPNS1] | 2.35 ± 0.47 | 2.14 ± 0.29 |
| TASDSESRAESAPLPVSADDTPEV [CDS2] | 5.48 ± 0.45 | 5.36 ± 0.38 |
| TSRGGPWVGTGLAAALAGLVGLAT [CPOX] | 1.89 ± 0.93 | 2.49 ± 0.087 |

| Sequence | protein stability index (treatment: DMSO) | protein stability index (treatment: MLN4924 1 uM, 8 h) |
| --- | --- | --- |
| LAFVGGLPLAYQQTSAFARQPRDE [TMEM175] | 3 ± 0.31 | 3.06 ± 0.15 |
| GKIRRGAYALPAGLSAPARCLVRC [TRIB3] | 2.47 ± 0.23 | 2.7 ± 0.33 |
| LRQQQDEAYLASLRADQEKERKKR [FAF2] | 4.36 ± 0.57 | 4.53 ± 0.4 |
| NLYVFGGYNPDYDESGGPDNEDYP [KLHDC10] | 3.9 ± 0.28 | 4.09 ± 0.22 |
| PEKEYQRQVWLLFEYPESSGPARV [KCNA1] | 2.59 ± 0.29 | 2.06 ± 0.33 |
| QQTHNIEKAHECTDCGKAFLKKSQ [ZNF649] | 3.93 ± 0.3 | 4.02 ± 0.17 |
| EGGEGEKEGEGEVGGEAVEVEEVE [TRIM55] | 5.66 ± 0.35 | 5.41 ± 0.29 |
| WTAPLVMRTTNLDNRCKLFDSPSL [CDC25A] | 2.4 ± 0.17 | 2.52 ± 0.28 |
| HLDIWKSAAWMKERTSPGAIHYCA [SPDEF] | 2.21 ± 0.39 | 2.4 ± 0.32 |
| PYSKTLVLQTSEGKALQQYPSERE [TRIM9] | 4.63 ± 0.088 | 4.66 ± 0.21 |
| KLEEERAKLHDVELHQVAERVEAL [GNB5] | 5 ± 0.34 | 5.15 ± 0.18 |
| SQSLCLNKPTMSFKDYIQERSDPV [ETS2] | 3.54 ± 0.32 | 3.67 ± 0.53 |
| VFPAPVVGSGGATSGKLLLEADEL [ZBTB22] | 4.93 ± 0.25 | 4.73 ± 0.22 |
| EASAEGPRAVFVLLEERRPADSAQ [TFE3] | 3.93 ± 0.28 | 3.95 ± 0.44 |
| RCVLVFEQVRFLMKSYSFLREAVP [SOAT2] | 2.54 ± 0.42 | 2.8 ± 0.38 |
| CGSKACRRLFGPVDSEQLRRDCDA [CDKN1A] | 3.18 ± 0.2 | 3.23 ± 0.093 |
| IIKQLKDVFERDWYSPYAKTLQPT [PLD5] | 1.98 ± 0.59 | 1.97 ± 0.39 |
| LTEHKRIHTGKKPHVCSLCGKAFY [ZNF649] | 2.83 ± 0.38 | 3.32 ± 0.56 |
| DREGPSSSKLVTKKAPQPAKPRLA [HDAC6] | 5.09 ± 0.3 | 5.06 ± 0.35 |
| GPALWLRSTCVYVCALSALPAGPL [PLEKHN1] | 2.98 ± 0.63 | 3.27 ± 0.74 |
| SLLKKPDGVKESTESSNTTIEDED [CAMK2D] | 5.52 ± 0.11 | 5.43 ± 0.19 |
| ENMDLNKIDDLMQEITEQQDIAQE [CHMP4C] | 5.6 ± 0.27 | 5.4 ± 0.24 |

| Sequence | protein stability index (treatment: DMSO) | protein stability index (treatment: MLN4924 1 uM, 8 h) |
| --- | --- | --- |
| IQDNGTGIRKEDLDIVCERFTTSK [MLH1] | 4.17 ± 0.2 | 4.46 ± 0.33 |
| AYQHSGHLESKDINQEELRALEEV [C10orf62] | 5.41 ± 0.29 | 5.4 ± 0.17 |
| LAKTGEGSYGVVFKCRNKTSGQVV [CDKL4] | 2.72 ± 0.31 | 2.75 ± 0.2 |
| NFDHFEILRAIGKGSFGKVCIVQK [STK32A] | 2.87 ± 0.27 | 3.02 ± 0.24 |
| MTSSSAYYYTKVMSELFLHTPSDT [PKD2L1] | 2.51 ± 0.28 | 2.16 ± 0.28 |
| QGQAKTPDSMFLAMLAVVSCASIG [CDK11A] | 3.36 ± 0.59 | 3.11 ± 0.63 |
| KEEEEEDCSEEYLERQLQAEFIES [TAF7L] | 5.36 ± 0.36 | 5.56 ± 0.12 |
| PLFMAAFDGRHSQTLKAMVQAWPF [PRAME] | 2.16 ± 0.13 | 2.07 ± 0.31 |
| SLSYTVLIVGRIAIGVSISLSSIA [SLC2A12] | 3.02 ± 0.43 | 3.37 ± 0.23 |
| SSVQKALFEEEDHVKKLQQKVATL [CCDC3] | 4.46 ± 0.33 | 4.49 ± 0.32 |
| MTEWKHQRITKQLEKWMQKNVEEN [GLT8D2] | 3.85 ± 0.21 | 3.97 ± 0.41 |
| NFSTFIKCIFTQFRIILGDFDYNA [PKD2L1] | 2.98 ± 0.36 | 2.94 ± 0.41 |
| HFDVLPTEFTLGDDKHYGGFTNKQ [PTPRD] | 4.48 ± 0.16 | 4.47 ± 0.25 |
| QKLGSGAWDNPAYSGPPSPHGTLR [PKD2L1] | 3.79 ± 0.1 | 3.95 ± 0.31 |
| SEVFGPERMPPSGAARSFQEVTEP [PXN] | 4.77 ± 0.32 | 5.19 ± 0.21 |
| DSKIAFLMQLQDIQYLTENIWASQ [IQUB] | 2.9 ± 0.64 | 2.46 ± 0.62 |
| LKEMYDADLLEEEVIISWSEKASK [EIF5] | 3.33 ± 0.45 | 3.88 ± 0.44 |
| FSSERGPRMCRYVRERDRLGNEYP [CDC25A] | 2.93 ± 0.29 | 2.61 ± 0.58 |
| NSGLINHQRIHTGEKPYECVQCGK [ZNF24] | 3.92 ± 0.17 | 3.99 ± 0.31 |
| QSGGRLRRPVNVPLDMFSEEIKFY [KCNA1] | 2.52 ± 0.28 | 2.75 ± 0.28 |
| DFSSGGAAAAAAPAPPPPAGGATA [SNAP91] | 5.39 ± 0.3 | 5.37 ± 0.15 |
